Reference: patent US7172865B2, “Rapid and sensitive assay for the detection and quantification of coregulators of nucleic acid binding factors” (Saint Louis University, priority 2001, dated 2007)

Key:
[1] = molecular target: CAP protein (Escherichia coli, UniProt P0ACJ8); settings: in the absence of cAMP
[2] = system: CAP5/CAP3 and CAP4/CAP1 nucleic acid duplexes; assay: CAP assay with 7-diethylaminocoumarin-3-carboxylic acid donor and dabcyl acceptor; format: binding, E. coli; settings: 100 nM CAP, 50 nM duplexes, 200 μM cAMP
Excerpt: (§1) Amino-Modifier C2 dT (Glen Research, Sterling, Va.) was incorporated into positions that are equivalent to the positions at which fluorescein-dT and dabcyl-dT has been used previously in CAP2 and CAP4 oligonucleotides, respectively. Amino-Modifier C2 dT contains a reactive aliphatic amino group that can be used to covalently attach any amino-reactive fluorescence probe. CAP5 (SEQ ID NO:7) and CAP6 (SEQ ID NO:8) oligonucleotides were modified with 7-diethylaminocoumarin-3-carboxylic acid, succinimidyl ester. This fluorochrome is excited at 433 nm and the maximum emission occurs at 475 nm providing the possibility of testing the assay with different emission colors. To modify the fluorochrome, ˜20 nmoles of the oligonucleotides were dissolved in 50 μl of 50 mM NaHCO3 (pH 8.3) and 50 nmoles of dry 7-diethylaminocoumarin-3-carboxylic acid, succinimidyl ester (Molecular Probes, Eugene, Oreg.) were added. The reaction mixture was incubated overnight at room temperature. […]
In the first experiment (FIG. 8), the pair of CAP5/CAP3 and CAP4/CAP1 nucleic acid duplexes were tested in the CAP assay. In this format, the 7-diethylaminocoumarin-3-carboxylic acid label present in the CAP5/CAP3 duplex functions as the fluorescence donor and the dabcyl label present in the CAP4/CAP1 duplex functions as a fluorescence acceptor.

[3] = system: TRP2/TRP3 and TRP1/TRP4 duplexes; assay: two-color simultaneous detection, fluorescein-labeled TrpR constructs; format: binding; settings: excitation 490 nm, one protein only
Excerpt: The compatibility of the assays described in the instant invention with a variety of fluorescence probes emitting at different wavelengths allows for the designing of variations in which two or more proteins may be detected simultaneously. Nucleic acid constructs specific for each of the proteins to be detected may be labeled with probes that emit light at different wavelengths. In this example, the reaction mixture contained nucleic acid constructs labeled with 7-diethylaminocoumarin-3-carboxylic acid for detecting CAP protein (described in EXAMPLE 2) and nucleic acid constructs labeled with fluorescein for detecting TrpR protein (described in EXAMPLE 6). Specifically, 100 nM CAP5/CAP3, 120 nM CAP1/CAP4, 100 nM TRP2/TRP3, and 120 nM TRP1/TRP4 duplexes were present in the reaction mixture.
The fluorescence spectra with the excitation at 433 nm (excitation of 7-diethylaminocoumarin-3-carbo acid, FIG. 17A) and with the excitation at 490 nm (excitation of fluorescein, FIG. 17B) were recorded in the absence of the proteins (curves 1), in the presence of CAP only (curves 2), in the presence of TrpR only (curves 3), and in the presence of both CAP and TrpR (curves 4). In the presence of only CAP there was no change in the fluorescein signal (FIG. 17B, curve 2) whereas about 60% quenching of the 7-diethylaminocoumarin-3-carbox acid signal was observed (FIG. 17A, curve 2). […]

[4] = system: CAP7/CAP8/CAP9 construct; assay: CAP assay variant with DNA linked by a long flexible linker; format: binding, E. coli; settings: 75 nM CAP
Excerpt: The properties of the assay illustrated in FIG. 1 depend upon the total concentration of the nucleic acid components. By covalently linking the two DNA duplexes—i.e., the components of the assay—by a long flexible linker, the assay becomes independent of DNA concentration, within a range of detectability of fluorescence signal and within a range of concentration required for efficient protein binding. FIG. 11 illustrates the design this variant of the assay for CAP detection. The nucleic acid components of the assay were covalently linked during oligonucleotide synthesis by introducing 12 moieties of the Spacer 18 phosphoramidate (Glen Research, Sterling, Va.), the structure of which is shown in FIG. 11B. The addition of 12 units of Spacer 18 results in a distance of ˜270 Å between the linked oligonucleotides. […]
FIG. 12 illustrates the enhanced performance of the variation of the invention depicted in FIG. 11. […] The kinetics of CAP induced fluorescence quenching was also studied to determine the incubation time necessary for the completion of the assay (FIG. 12B). In this experiment, the fluorescence intensity of 50 nM of the CAP7/CAP8/CAP9 construct was monitored as a function of time at 520 nm with the excitation wavelength set at 490 nm. At the time indicated by the arrow in FIG. 12B, 75 nM CAP protein was added and the monitoring of the fluorescence signal was resumed. […]

[5] = molecular target: DNA; settings: sequence specific binding; cited from earlier work
[6] = system: CAP6/CAP1 and CAP2/CAP3 nucleic acid duplexes; assay: CAP assay with coumarin donor and fluorescein acceptor; format: binding, E. coli; settings: 0 to 150 nM CAP, excitation 433 nm
Excerpt: as §1, with “colors.” for “colors. To modify the fluorochrome, ˜20 nmoles of the oligonucleotides were dissolved in 50 μl of 50 mM NaHCO3 (pH 8.3) and 50 nmoles of dry 7-diethylaminocoumarin-3-carboxylic acid, succinimidyl ester (Molecular Probes, Eugene, Oreg.) were added. The reaction mixture was incubated overnight at room temperature.”
In a second experiment (FIG. 9), the pair of CAP6/CAP1 and CAP2/CAP3 nucleic acid duplexes were tested for the performance in CAP assay. In this assay format, the 7-diethylaminocoumarin-3-carboxylic acid present in the CAP6/CAP1 duplex functioned as a fluorescence donor and the fluorescein present in the CAP2/CAP3 duplex functioned as an acceptor. […] Also, as shown in the inset of FIG. 9, the ratio between the fluorescence intensities at 520 nm and 475 nm may be used to determine the concentration of nucleic acid binding proteins. […]

B1: CAP: bacterial transcription activator from E. coli which binds DNA in a sequence specific, cAMP-dependent manner (protein, UniProt P0ACJ8 2-210, looked up)
DNA-binding transcriptional …: VLGKPQTDPTLEWFLSHCHIHKYPSKSTLIHQGEKAETLYYIVKGSVAVLIKDEEGKEMILSYLNQGDFIGELGLFEEGQERSAWVRAKTACEVAEISYKKFRQLIQVNPDILMRLSAQMARRLQVTSEKVGNLAFLDVTGRIAQTLLNLAKQPDAMTHPDGMQIKITRQEIGQIVGCSRETVGRILKMLEDQNLISAHGKTIVVYGTR
- CAP binding to the CAP1/CAP4 and CAP2/CAP3 DNA duplex [1]: No detectable binding
- quenching of the fluorescence signal [2]: ~70%
- quenching of the fluorescein signal [3]: no change
- time for completion of the reaction [4]: ≤ 20 s
- quenching of the fluorescence signal ([4]; 50 nM construct, 200 μM cAMP): ~70%
- Kd [5]: ~0.1 nM
- change of emission peaks [6]: pronounced quenching of the peak at 475 nm and a pronounced enhancement of the peak at 520 nm
